For two molecules, Kd results are on record in publication PMC12005789, “Geniposidic Acid Targeting FXR “S332 and H447” Mediated Conformational Change to Upregulate CYPs and miR‐19a‐3p to Ameliorate Drug‐Induced Liver Injury” (Advanced Science, 2025).

Ends that are not written are not given here.

Assay [1] deals with T1, Farnesoid X receptor (FXR) (Homo sapiens, UniProt Q96RI1).
T1 construct: gene NR1H4; human FXR LBD (residues 248–486), N-terminal 8×His-Tag
T1 sequence (Q96RI1 248-486): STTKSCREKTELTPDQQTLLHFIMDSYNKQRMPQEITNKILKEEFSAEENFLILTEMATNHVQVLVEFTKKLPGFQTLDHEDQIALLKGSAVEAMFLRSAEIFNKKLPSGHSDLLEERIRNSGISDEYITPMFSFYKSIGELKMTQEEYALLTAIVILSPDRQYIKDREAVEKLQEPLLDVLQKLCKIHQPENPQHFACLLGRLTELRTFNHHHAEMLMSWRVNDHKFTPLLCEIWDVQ
Kind of assay: SPR (Biacore T200, CM5 chip with FXR LBD WT); supported by DSF, CETSA and AlphaScreen. The class given is binding. (In general: In SPR one partner is held on a chip, and binding of the other changes the refractive index at the surface.)

The target in assay [2] is T2, human FXR LBD wild-type recombinant protein (human).
T2 chain: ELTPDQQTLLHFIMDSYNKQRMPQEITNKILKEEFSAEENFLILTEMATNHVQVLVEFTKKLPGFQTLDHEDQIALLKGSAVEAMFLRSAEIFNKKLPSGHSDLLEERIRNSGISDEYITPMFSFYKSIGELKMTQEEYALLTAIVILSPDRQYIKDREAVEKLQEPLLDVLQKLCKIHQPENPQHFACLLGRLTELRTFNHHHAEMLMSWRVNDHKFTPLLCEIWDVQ
Kind of assay: SPR; with GPA.

Assay [3] concerns the target T3, human FXR LBD H447A recombinant protein (human).
T3 chain: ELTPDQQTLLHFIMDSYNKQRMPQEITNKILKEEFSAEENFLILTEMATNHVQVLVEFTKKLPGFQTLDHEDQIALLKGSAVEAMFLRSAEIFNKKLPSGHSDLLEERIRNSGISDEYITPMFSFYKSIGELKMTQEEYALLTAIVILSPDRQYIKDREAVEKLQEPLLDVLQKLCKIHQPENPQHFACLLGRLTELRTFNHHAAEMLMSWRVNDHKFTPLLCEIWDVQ
As to the kind of experiment: SPR; with GPA.

For assay [4], the target named is T2, human FXR LBD wild-type recombinant …. As to the kind of experiment: SPR; with GW4064.

In general, Kd refers to the concentration at which binding is half-saturated. Consider `O=C(O)C1=CO[C@@H](O[C@@H]2O[C@H](CO)[C@@H](O)[C@H](O)[C@H]2O)[C@@H]2C(CO)=CC[C@H]12` [GPA, Geniposidic acid], for which, in assay [1], the affinity, expressed as Kd, was 390 nM.
Turning to QEPVSPKKKENALLRYLLDKDDTKD (also: biotinylated (position not given here)) [SRC2-3 biotinylated cofactor peptide], the Kd was found to be 533 nM in assay [2], 355000 nM in assay [3] and 185 nM in assay [4].
